According to article PMC7948450:

Biological target: ancestral flavin-containing monooxygenase 1 (AncFMO1), reconstructed mammalian ancestor of FMO1 (reconstructed mammalian ancestor)
Assay: crystal structure; AncFMO1 12.5 mg/ml with 1.0 mM NADP+ in storage buffer with 0.03% DDM; sitting drop, 20 °C, 100 mM Hepes pH 7.5, PEG 4000 10%, glycerol 20%; 3.0 Å; asymmetric unit of two dimers

- stoichiometry N: 2
Substance: ancestral flavin-containing monooxygenase 1 (AncFMO1), reconstructed mammalian ancestor of FMO1 (enzyme)
